Our source for the response (relative intensity) values is article PMC12680535.

B1: NSUN2 (NOP2/Sun RNA methyltransferase family member 2), wild type, in PANC-1 cells [human (endogenous in PANC-1)] / STUB1 (STIP1 homology and U-box containing protein 1), in PANC-1 cells [human (endogenous in PANC-1)] (parent)
chain 1: MKGKEEKEGGARLGAGGGSPEKSPSAQELKEQGNRLFVGRKYPEAAACYGRAITRNPLVAVYYTNRALCYLKMQQHEQALADCRRALELDGQSVKAHFFLGQCQLEMESYDEAIANLQRAYSLAKEQRLNFGDDIPSALRIAKKKRWNSIEERRIHQESELHSYLSRLIAAERERELEECQRNHEGDEDDSHVRAQQACIEAKHDKYMADMDELFSQVDEKRKKRDIPDYLCGKISFELMREPCITPSGITYDRKDIEEHLQRVGHFDPVTRSPLTQEQLIPNLAMKEVIDAFISENGWVEDY
chain 2: MGRRSRGRRLQQQQRPEDAEDGAEGGGKRGEAGWEGGYPEIVKENKLFEHYYQELKIVPEGEWGQFMDALREPLPATLRITGYKSHAKEILHCLKNKYFKELEDLEVDGQKVEVPQPLSWYPEELAWHTNLSRKILRKSPHLEKFHQFLVSETESGNISRQEAVSMIPPLLLNVRPHHKILDMCAAPGSKTTQLIEMLHADMNVPFPEGFVIANDVDNKRCYLLVHQAKRLSSPCIMVVNHDASSIPRLQIDVDGRKEILFYDRILCDVPCSGDGTMRKNIDVWKKWTTLNSLQLHGLQLRIATRGAEQLAEGGRMVYSTCSLNPIEDEAVIASLLEKSEGALELADVSNELPGLKWMPGITQWKVMTKDGQWFTDWDAVPHSRHTQIRPTMFPPKDPEKLQAMHLERCLRILPHHQNTGGFFVAVLVKKSSMPWNKRQPKLQGKSAETRESTQLSPADLTEGKPTDPSKLESPSFTGTGDTEIAHATEDLENNGSKKDGVCGPPPSKKMKLFGFKEDPFVFIPEDDPLFPPIEKFYALDPSFPRMNLLTRTTEGKKRQLYMVSKELRNVLLNNSEKMKVINTGIKVWCRNNSGEEFDCAFRLAQEGIYTLYPFINSRIITVSMEDVKILLTQENPFFRKLSSETYSQAKDLAKGSIVLKYEPDSANPDALQCPIVLCGWRGKASIRTFVPKNERLHYLRMMGLEVLGEKKKEGVILTNESAASTGQPDNDVTEGQRAGEPNSPDAEEANSPDVTAGCDPAGVHPPR

In the experiment the parent is B1. As to the kind of experiment: Co-IP (IP: anti-Flag) immunoblot, band quantification. To be noted: with STUB1 (STIP1 homology and U-box containing protein 1), MG132 +, n = 3, parent: 1, read off a plot. (A western blot detects proteins with antibodies after separation by electrophoresis.)
As to chain 2 K692E, the response (relative intensity) was determined as 0.3. For chain 2 K692R the value was 2.
